For orientation: Kd means the equilibrium constant for the complex coming apart.

The values below come from paper PMC2697320, “Identification of the high affinity binding site in the Streptococcus intermedius toxin intermedilysin for its membrane receptor, the human complement regulator CD59” (Molecular Immunology, 2009).

The target of the test is T1, Recombinant soluble CD59 comprising amino acids 1-76 with an 11 amino acid Ser/Gly linker and termin (human, terminal Cys reduced with TCEP and thiol-coupled to the PDEA-modified CM5 chip).
T1 construct: also called recombinant CD59; immobilised CD59
Put plainly: SPR. As to conditions: both partners purified.

Regarding AWEPWRLIYSKNDLPLVPC, the Kd was determined as 4.92 µM.
